Here are results for six proteins from article PMC7949036, “Zinc transporter mutations linked to acrodermatitis enteropathica disrupt function and cause mistrafficking” (The Journal of Biological Chemistry, 2021).

Series [1] concerns the molecule itself. The series is described as follows: SEC; Superdex 200 10/300GL, 10 mM HEPES pH 7.3, 100 mM NaCl; apparent molecular weight estimated from protein standards; native purified protein.
Series [2] in a line: confocal immunofluorescence, FITC anti-HA, nonpermeabilized cells. Particulars: glycan lost; control: wild type.
A short description of series [3]: cell-based 65Zn uptake, HEK293T. To be noted: glycan lost; control: wild type.

B1: extracellular domain of ZIP4 from Pteropus alecto (black fruit bat), wild type (domain or fragment, UniProt L5KLU7 36-322, looked up)
chain: SGQGALDRVALGGLLNTLAARVHCTSGPCGKCLSVDDLLALGRPEEPGHLARLSAAAALYLSDPEGTCEDIRAGRWASRADHLLALLEGPKALAPGLSRLLQRIQAQTTGQPSAGEACVDPPQLLREAGVAGAPGSPGPVLATLLEHVGRGSCFHTLPTPQYFVDFVFQQSHGNTPNISVAELAALMQRLGVGGVTETHSDHHHQEKRVNRQGPTPLTAPNSSSDTWDTVCLSARDVMAVYGLSEQTGVTPEAWAQLSPALLQQQLSGACSPQPSHPAQNQLSQAEK
notes: ZIP4 (zinc transporter, SLC39A family) of Pteropus alecto, extracellular domain, residues 36-322 of ELK11751; His6 tag removed by thrombin; also called pZIP4-ECD; wild-type pZIP4-ECD; source: E. coli Origami B(DE3) pLysS, purified (Ni-NTA, Mono-Q, SEC); not shown: His6, N-terminal, cleaved
A word on the stoichiometry N: it is a count of units in the complex or per binding partner. For the protein B1, the “stoichiometry N” value in series [1] is 2.

B2: pZIP4-ECD R87C variant (domain or fragment, Pteropus alecto, UniProt L5KLU7 36-322, looked up)
chain: SGQGALDRVALGGLLNTLAARVHCTSGPCGKCLSVDDLLALGRPEEPGHLACLSAAAALYLSDPEGTCEDIRAGRWASRADHLLALLEGPKALAPGLSRLLQRIQAQTTGQPSAGEACVDPPQLLREAGVAGAPGSPGPVLATLLEHVGRGSCFHTLPTPQYFVDFVFQQSHGNTPNISVAELAALMQRLGVGGVTETHSDHHHQEKRVNRQGPTPLTAPNSSSDTWDTVCLSARDVMAVYGLSEQTGVTPEAWAQLSPALLQQQLSGACSPQPSHPAQNQLSQAEK
notes: ZIP4 of Pteropus alecto, extracellular domain, residues 36-322 of ELK11751, with R87C (equivalent to R95C of human ZIP4); source: E. coli Origami B(DE3) pLysS, purified (Ni-NTA, Mono-Q, SEC); not shown: His6, N-terminal, cleaved
For B2, the binding result in series [1] is “binds”.

B3: pZIP4-ECD P193L variant (domain or fragment, Pteropus alecto, UniProt L5KLU7 36-322, looked up)
chain: SGQGALDRVALGGLLNTLAARVHCTSGPCGKCLSVDDLLALGRPEEPGHLARLSAAAALYLSDPEGTCEDIRAGRWASRADHLLALLEGPKALAPGLSRLLQRIQAQTTGQPSAGEACVDPPQLLREAGVAGAPGSPGPVLATLLEHVGRGSCFHTLLTPQYFVDFVFQQSHGNTPNISVAELAALMQRLGVGGVTETHSDHHHQEKRVNRQGPTPLTAPNSSSDTWDTVCLSARDVMAVYGLSEQTGVTPEAWAQLSPALLQQQLSGACSPQPSHPAQNQLSQAEK
notes: ZIP4 of Pteropus alecto, extracellular domain, residues 36-322 of ELK11751, with P193L (equivalent to P200L of human ZIP4); source: E. coli Origami B(DE3) pLysS, purified (Ni-NTA, Mono-Q, SEC); not shown: His6, N-terminal, cleaved
On to B3, for which, in series [1], the binding result is “binds”.

B4: pZIP4-ECD A91T variant (domain or fragment, Pteropus alecto, UniProt L5KLU7 36-322, looked up)
chain: SGQGALDRVALGGLLNTLAARVHCTSGPCGKCLSVDDLLALGRPEEPGHLARLSATAALYLSDPEGTCEDIRAGRWASRADHLLALLEGPKALAPGLSRLLQRIQAQTTGQPSAGEACVDPPQLLREAGVAGAPGSPGPVLATLLEHVGRGSCFHTLPTPQYFVDFVFQQSHGNTPNISVAELAALMQRLGVGGVTETHSDHHHQEKRVNRQGPTPLTAPNSSSDTWDTVCLSARDVMAVYGLSEQTGVTPEAWAQLSPALLQQQLSGACSPQPSHPAQNQLSQAEK
notes: ZIP4 of Pteropus alecto, extracellular domain, residues 36-322 of ELK11751, with A91T (equivalent to A99T of human ZIP4); source: E. coli Origami B(DE3) pLysS, purified (Ni-NTA, Mono-Q, SEC); not shown: His6, N-terminal, cleaved
Turning to B4, in series [1], the binding result is “binds”.

B5: pZIP4-ECD C64R variant (domain or fragment, Pteropus alecto, UniProt L5KLU7 36-322, looked up)
chain: SGQGALDRVALGGLLNTLAARVHCTSGPRGKCLSVDDLLALGRPEEPGHLARLSAAAALYLSDPEGTCEDIRAGRWASRADHLLALLEGPKALAPGLSRLLQRIQAQTTGQPSAGEACVDPPQLLREAGVAGAPGSPGPVLATLLEHVGRGSCFHTLPTPQYFVDFVFQQSHGNTPNISVAELAALMQRLGVGGVTETHSDHHHQEKRVNRQGPTPLTAPNSSSDTWDTVCLSARDVMAVYGLSEQTGVTPEAWAQLSPALLQQQLSGACSPQPSHPAQNQLSQAEK
notes: ZIP4 of Pteropus alecto, extracellular domain, residues 36-322 of ELK11751, with C64R (equivalent to C62R of human ZIP4); source: E. coli Origami B(DE3) pLysS, purified (Ni-NTA, Mono-Q, SEC); not shown: His6, N-terminal, cleaved
For the protein B5, in series [1], the binding result is given as “binds”.

B6: hZIP4 (human ZIP4): N261Q (protein)
parent chain: MASLVSLELGLLLAVLVVTATASPPAGLLSLLTSGQGALDQEALGGLLNTLADRVHCANGPCGKCLSVEDALGLGEPEGSGLPPGPVLEARYVARLSAAAVLYLSNPEGTCEDARAGLWASHADHLLALLESPKALTPGLSWLLQRMQARAAGQTPKMACVDIPQLLEEAVGAGAPGSAGGVLAALLDHVRSGSCFHALPSPQYFVDFVFQQHSSEVPMTLAELSALMQRLGVGREAHSDHSHRHRGASSRDPVPLISSSNSSSVWDTVCLSARDVMAAYGLSEQAGVTPEAWAQLSPALLQQQLSGACTSQSRPPVQDQLSQSERYLYGSLATLLICLCAVFGLLLLTCTGCRGVTHYILQTFLSLAVGAVTGDAVLHLTPKVLGLHTHSEEGLSPQPTWRLLAMLAGLYAFFLFENLFNLLLPRDPEDLEDGPCGHSSHSHGGHSHGVSLQLAPSELRQPKPPHEGSRADLVAEESPELLNPEPRRLSPELRLLPYMITLGDAVHNFADGLAVGAAFASSWKTGLATSLAVFCHELPHELGDFAALLHAGLSVRQALLLNLASALTAFAGLYVALAVGVSEESEAWILAVATGLFLYVALCDMLPAMLKVRDPRPWLLFLLHNVGLLGGWTVLLLLSLYEDDITF
B6: the localisation_or_trafficking entry in series [2] is given as “no change”. For the same protein, the “other: transport activity” value in series [3] is “decreases”.
